We go through 167 variants from the RNAGym collection of RNA variant scans (doi:10.7554/elife.90254).

B1: LINE1-full (parent)
chain: UACGUAGGUGGUUUUCCCCUGAUAGUGCUAAGGGGGCCUGGAAGUUUGGACUGGGCAGAGCUCAACACAGCGUGGCAAAGUGGCUGUGGCUAGACUGCCUCUCUGGAUUCCUCGUCACUCAGCAGGGCAUCUCUGAGAGAAAUGCC

In the data set the parent is B1. The data set is described as follows: self-cleavage, relative activity (ratio to wild type); higher = more cleavage; in vitro, sequencing; the parent is a self-cleaving ribozyme.
As for U5C G40A, the self-cleavage was determined as 0.42. As to A6C A141G, the self-cleavage worked out at 1.71. For A6U G36A, the self-cleavage worked out at 0.88. With G7U, the self-cleavage is 1.35. Take G7A: the self-cleavage is 1.08. On to G7C, for which the self-cleavage came to 1.4. As to A6G G55U, the self-cleavage amounted to 0.41. As to A6U U47C, the self-cleavage stood at 0.8. For U5C U91G, the self-cleavage is 0. The same measure for G7C U85C: 1.26. As to A6U G126U, the self-cleavage was 1.16. Regarding A6U G126A, the self-cleavage is 1.8. Regarding A6U A67U, the self-cleavage was determined as 0.22.

Turning to A6U A67G, the self-cleavage worked out at 0.49. As for G8A U143C, the self-cleavage came out at 1.45. Turning to A6G U73A, the self-cleavage came to 1.11. With U5C U14C, the self-cleavage is 0.99. The same measure for A6U A121G: 0.87; for G7A U47C: 1.21; for U5G U119C: 1.02. For A6G A64U, the self-cleavage was 0.87. With U5C U52G, the self-cleavage is 1.23. With U5C U52A, the self-cleavage is 1.02.

Consider U5C U52C, for which the self-cleavage is 1.23. As for A6G U91C, the figure is 0.51; as for A6U A64C, 0.68; as for G7U U52C, 1.1.

In the case of A6U A124U, the self-cleavage is 1.51. On to G8U U13C, for which the self-cleavage was 2.33.

Take G8C U143A: the self-cleavage came out at 2.06. As for A6G G32C, the figure is 0.65; as for U5C U15A, 0.63; as for G8C G75A, 1.2. For the variant G7A U9C, the self-cleavage stood at 0.68. Regarding G8C A138G, the self-cleavage was determined as 1.44. G7U A107G: the self-cleavage turned out to be 1.36.

U9A A67G: the self-cleavage was found to be 0.58. On to G7A C18U, for which the self-cleavage was determined as 1.59. On to G7U U115C, for which the self-cleavage amounted to 0.79. In the case of U5C U13C, the self-cleavage was determined as 0.87. Consider A6U A117G, for which the self-cleavage stood at 0.3. With A6U A117U, the self-cleavage amounted to 1.53. As for A6U U81C, the figure is 1.06; as for U5G A59G, 0.19; as for G8U U130C, 1.66. Regarding G8A A121G, the self-cleavage came out at 0.54. The same measure for G8A A121C: 0.46; for G8C A142G: 1.21. As for A6G G86A, the figure is 0.31; as for G8U C56U, 0.28; as for U9A A92U, 0.73. The same measure for G7C U73C: 0.74; for G8A U134C: 1.55; for U5C U96A: 0.12. Consider U5C U96C, for which the self-cleavage worked out at 0.26. Consider G7U C123U, for which the self-cleavage was 1.39. As to G7U A65U, the self-cleavage amounted to 0.17. As to G7U A65G, the self-cleavage is 0.13. With A6G U47C, the self-cleavage worked out at 0.53. Take A6G U47A: the self-cleavage is 0.91. As for G7A A138G, the figure is 1.37; as for A6U A43U, 0.89. Consider A6U A43G, for which the self-cleavage came to 1.01. The same measure for A6G U13C: 0.93; for U5G U100C: 1.15; for A6U C18U: 0.84. Consider U5C G127C, for which the self-cleavage was found to be 1.12. As for G7U G70A, the figure is 0.2. The same measure for G7U G54A: 0.94. G7U G54C: the self-cleavage came out at 0.49.

On to G8A C131A, for which the self-cleavage was 0.51.

As for U5C U143C, the self-cleavage came out at 0.11. Consider A6G G11A, for which the self-cleavage came to 2.36. For the variant A6G G11C, the self-cleavage worked out at 0.31. Consider A6U G32U, for which the self-cleavage is 0.54. For G7U U87A, the self-cleavage is 0.12. In the case of G7U U87C, the self-cleavage was 0.18. As for A6G C145U, the self-cleavage is 1.64. With G8A G86A, the self-cleavage amounted to 0.09.

As for G7U A142G, the self-cleavage came to 1.15.

As for G7A U143C, the self-cleavage was 1.29.

Consider A6C A129U, for which the self-cleavage is 0.77. On to U9A A31G, for which the self-cleavage came out at 1.35. As for G7C A92G, the self-cleavage was found to be 0.

For G8C U39C, the self-cleavage is 0.91. As for G7A U23A, the figure is 0.85.

For the variant G8A A67C, the self-cleavage was determined as 0. With A6G A30G, the self-cleavage was determined as 1.14.

Regarding G8U U15C, the self-cleavage amounted to 1.62.

Take G7A U45A: the self-cleavage is 0.53. Regarding G8A A59G, the self-cleavage stood at 0.16. As to G7U U20C, the self-cleavage was 1.15. Take U5G A50U: the self-cleavage amounted to 0.38. As for A6C A57G, the self-cleavage worked out at 0.92. Consider A6G A136G, for which the self-cleavage is 1.17. Consider G7U U91A, for which the self-cleavage worked out at 1.12. For A6U C71U, the self-cleavage turned out to be 1.15. Regarding G8A U119C, the self-cleavage is 1.1. The same measure for G8A U119A: 2.47. With A6G U134A, the self-cleavage was found to be 0.52. As to A6G U134C, the self-cleavage was 0.85. Turning to A6G U14C, the self-cleavage was found to be 0.61. Take G7U U85A: the self-cleavage turned out to be 0.13. Take G7A A142G: the self-cleavage was determined as 1.59. Regarding U5C U109A, the self-cleavage came to 0.74. For G8A U20C, the self-cleavage amounted to 1.59.

As for A6U U109A, the self-cleavage amounted to 0.99.

Take A6U G137A: the self-cleavage is 1.53.

For G7A G54A, the self-cleavage was 0.4.

In the case of G7A C111U, the self-cleavage came to 0.35. With G8U A124U, the self-cleavage turned out to be 1.47.

For the variant G8C A121C, the self-cleavage is 1.75. As for G7U A30G, the self-cleavage amounted to 0.78. For the variant G7U C16U, the self-cleavage was determined as 1.5.

Turning to A6U U9C, the self-cleavage was determined as 0.36. As for A6U U9A, the self-cleavage is 1.56.

G8U U62A: the self-cleavage was 0.12.

On to A6U U85C, for which the self-cleavage was determined as 0.4. For the variant A6U U115C, the self-cleavage is 1.28.

A6U U132C: the self-cleavage was found to be 1.33. As to A6U G41A, the self-cleavage was 1.52. As for A6G G137U, the self-cleavage was 0.81. As for U5C G137A, the figure is 1.38; as for G8A U132C, 1.58. Regarding A6G A141G, the self-cleavage was found to be 1.03. As for G8A A142G, the figure is 1.45; as for U5C U26C, 1.23.

On to A6G U100C, for which the self-cleavage turned out to be 0.87. As to G7A U102C, the self-cleavage turned out to be 1.77. The same measure for U9A A22U: 0.89; for G7C U13C: 2.07; for G7U U112A: 1.06. Consider G7U U112C, for which the self-cleavage came out at 1.15. In the case of G7A A141G, the self-cleavage is 0.69. Consider A6U A30U, for which the self-cleavage is 0.58. For A6U A30G, the self-cleavage was 1.01. As for U5C U112C, the self-cleavage came out at 0.99.

Turning to U5C U112A, the self-cleavage stood at 1.15. In the case of A6U C66U, the self-cleavage was 0.09. As for A6G U9C, the figure is 1.16.

On to U9A A141G, for which the self-cleavage was found to be 1.36. As to A6G A22U, the self-cleavage stood at 1.11.

Consider G7U A57G, for which the self-cleavage was 0.12. Consider A6G C18U, for which the self-cleavage is 0.59. As to U9A A117U, the self-cleavage came out at 1.11. As for U9A A117G, the self-cleavage is 0.96. In the case of A6G G40A, the self-cleavage worked out at 0.84. U5C G48A: the self-cleavage stood at 0.45.

With A6G U119C, the self-cleavage was found to be 0.73.

With U5C U62A, the self-cleavage came out at 0. Turning to G7U U132C, the self-cleavage turned out to be 1.23. As to G8C A140G, the self-cleavage is 2.03.

Turning to U5C G60A, the self-cleavage came out at 0.08. For the variant U9A A77U, the self-cleavage is 0.85. For the variant A6G U143A, the self-cleavage is 0.89.

As for A6G A31G, the self-cleavage was determined as 0.66.

G7C G40A: the self-cleavage was 1.27. On to A6G A57G, for which the self-cleavage was 0.64. For the variant A6G A57U, the self-cleavage is 0.42. As for A6U A136G, the figure is 1.33; as for G8A G97A, 0.41; as for G8C U14G, 1.39. For G8C A129G, the self-cleavage is 1.31. Regarding A6C A121U, the self-cleavage is 1.18. For A6U U26A, the self-cleavage came to 0.87. Turning to A6U U26C, the self-cleavage was found to be 0.94. The same measure for G7C U143C: 1.93.
